Results: the RNAGym collection of RNA variant scans (doi:10.1073/pnas.2313332121)

B1: TPR t1 (parent)
chain: GACCAAUCUGCCCUCAGAGCUCGAGAACAUCUUCGGAUGCAGAGGAGGCAGGCUUCGGUGGCGCGAUAGCGCCAACGUCCUCAACCUCCAAUGCAUCCCACCACAUGAUGAUGCCUGAAGAGCCUUGGUUUUUUG

Variants of: B1
Test: polymerase ribozyme fitness, log enrichment relative to wild type (log ratio); higher = more active; in vitro selection for triplet polymerase activity
Outline: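 Each subunit of a heterodimeric triplet polymerase ribozyme was mutagenized into a library by PCR, transcribed, and subjected to one round of in vitro selection, run in triplicate. Libraries were annealed with a biotinylated primer, the partner subunit and triplets, incubated frozen at −7 °C, and extended constructs were gel-excised, captured on streptavidin beads and recovered by RT-PCR. Input and output libraries were sequenced on Illumina, keeping genotypes with ≥10 input reads and ≥1 read per output. Fitness is log base 2 of genotype enrichment divided by wild-type enrichment, from inverse-variance-weighted replicate averages.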

Variant | polymerase ribozyme fitness (log ratio)
C49G G60U C73U G128U | -3.07
A27C C79U A91C G120A | -4.64
G42A C88G | -2.63
A66U C88U | -0.564
U54G U87C C115G | -1.72
A27G U33G G63C G120A C123U | -5.79
A5C C11G U87G C89A G120C | -0.971
C13A C15G U106A | -3.48
C98A U109A | -5.81
G60U A75U G117C | -3.72
C49G G63U U96G | -2.68
C11U U32C C123G | 1.18
A37U U126A | -2.55
C72U U96A A118G | -1.7
C8G G69C U78G C101A | -3.19
G36U C73U | -2.28
G10U G120U | 1.99
A18C U55A G57C C70G C124A | -6.54
A46U C123U | 0.165
G39C C73A A74U | -0.844
C13U G42U C56U C114G C123A | -1.36
C15U C34U | -4.93
C72U U132G G135U | -0.759
A29U C31A G69A C104G G117C A121U | -7.2

Variant | polymerase ribozyme fitness (log ratio)
C40U C53U C72A C97U | -0.251
C15U A111U A118C | -5.19
C20G G120C | -2.75
G77C G120C | 0.526
C4U A41G C62A A84C C115U | -4.65
A18G A37G A66U C94U G113C G117A | -4.01
A6U G48C C102U U131C | -1.55
C62A U81G G120A | -4.65
G45C C73A U81A C88G | -0.576
A41C A83U | -1.29
C3A C8G A74U A95C G117A G128U | -0.293
G35U G39C G120A U125A | -5.76
G36U G44U U112G | -4.18
C34G A46G A91C | -8.04
G48A G69C C79U U92G U116C G120C | -7.13
A84G G117U | -3.75
G69A U87G | -2.08
A6C C13U U33A G45U G51C A68U A121U G122U | -6.98
G69A G93A | -3.19
G35U U130C | -5.09
U7G C53U C88G C104U G113C U130G | -2.37
U21C C70U A111C | -0.344
C3U A46U | -1.57
A27C G51U C76U C115G C124G U131A G135U | -7.29

Variant | polymerase ribozyme fitness (log ratio)
U7G G10A C15G G17A A43C C53G C97U | -4.35
U55C G71A A84U C102A C104U | -3.41
A5C C13A C70U U87A | -3.43
C11U G47A G48A | -2.36
G23A G63C C76U C101U A111G | -5.22
C31A G61A C94U C97U C123U | -6.35
G45C C73U G117A G135U | -4
A43C C49A | -3.08
C73U C79A A95G | -0.961
A43U | -1.2
C15A C53U | -1.61
C64A U87A G93A U112A | -5.11
U54A G120A | 0.0705
C11G A27U C49A G61A A84G | -4.25
U9A G117A | 1.04
C70U U131G | -2.36
A37U C70A U109A | -6.47
A5C C15A C64U U81C C88U | -3.57
A2U C12U U78C U87G U112G | -3.07
G42C C85G | -3.39
C12U G36U A74C C94U A111G U116A | -2.62
C22G C56A C79A | -4.99
C82G C86U C102U U112G | -3.94
C56G C89U | -0.286

Variant | polymerase ribozyme fitness (log ratio)
G60A A83C C101G G128C | -4.75
C12G A75U | 0.372
A37C C40A G52A G61C A111C G127C | -5.24
C102A U106G | -4.52
G44A C49U G117C U133G | -5.23
G60U C62U | -0.758
U21G A46G G48U A100C C102A | -5.54
G61C G117U | -4.38
G39U G60U U129G | -2.5
C82U U125A | -0.249
C12G A29U G117A | -2
C102U A119U C123A U126A | -2.22
G45U C49G C53U C88G | -0.226
A16C A18C C40U G71U C79U | -5.22
C40G C123G | 0.299
G61U A66C U92C | -2.21
C15U G36A G69U C72U | -1.55
A37U C86U | -0.912
G63A U116A | -3.92
U14G A27G A29G G36C C40U C56A G63U C115U G122A | -6.64
A43G U54C A95U A121C U129A | -2.96
A5U C12G G58C A90U C124G G128A | -2.47
C34G G63U C70U | -6.08
A5U G44A C56U G117A | -3.69

Variant | polymerase ribozyme fitness (log ratio)
C22A G120A | -4.53
C82G A95U A105G | -3.5
C11U A43U C53G G120A | -1.5
C73G A111C | -0.327
G71U C73G | -5.51
G39C A43U C85A U112A C115U U130C | -4.22
G45C C62A A83G A84U | -3.77
A43U G57U C86A | -2.97
C49A U78G U96G | -0.964
G10C G42C G61C C123A G128A | -6.33
C76U U87A G110A U130G | -2.07
U59C U130G | -0.745
A16C U112G | -2.88
G44U U55G G61C A119U | -1.87
G77C U96A U125A | -3.38
U7C G61A U87G | 0.298
A5G A18G G44C G48C U55C U59G G117U | -5.35
U38C C53A G93C G122A C123U | -2.19
C53A G63A G93A | -1.34
C11U G63C | -1.64
C22A C72U | -4.98
A5G U9G U21A C56U A83U | 0.0637
G71U G93C | -2.12
C53G G63C G127C | -1.19

Variant | polymerase ribozyme fitness (log ratio)
A18C G52A G61A A118G | -2.74
C49U U81G | -3.78
G10U C72G A91G | -1.95
C22G A75U | -3.6
C40U A46U G52A C70U | -3.49
C12U C86A C98U | -0.708
C8G C20A U96A U131G | -3.68
A18G U112A | -0.0704
C13U G63U C70G C114A G120C | -0.574
A2G C20U G60C | -1.66
C82U G110U | -1.15
A27G U32A G36U G44A G63C C76A | -7.06
C72U U106A | 0.0802
C13G U125A | -1.62
C3A C4A C40U C104A U112G | -3.41
C12U G47A U87C | -0.382
C11A U33G | -6.86
G52U G71U | -0.703
C11G C15A A29U G45C G77A G120A G128U | -5.34
G36A G42U C53U U55G C86U G110U | -6.5
A6U A29G G61U C89A A121G | -0.882
A2U G45A G69U C124A | -0.409
A6U U9G C40G G60U C80U U126C U131A | -3.72
C11U G51C C85U | -4.53

Variant | polymerase ribozyme fitness (log ratio)
G17U U38A G71C U125A | -4.76
C34A A37G C53U U78G | -2.19
C62A U87A U92A U116C | -6.88
C8U A26G U54C C72U | -2.88
C102U C114G | -4.58
G42U A84U C115A G127A | -4.77
U112G U133G | -0.442
C104A A118U U125G U130A | -3.67
U55A G63A C73A | -1.05
G44C C72U A100C | -2.51
G17C G69U C79G | -4.17
G69C U87A | -1.98
U55C C72G | -0.713
U78C C80G | -4.13
U7A U9A C20U U38A G47U C56A G60U C72G C114A A121U C123U | -4.89
C4U C8G C13A U21G C70U G120C U132C | -0.598
U7C U21C G61U A83G G120A | -0.41
G60C A68G | -4.8
A27C U55G | -2.72
G60U G128A | -1.69
U14A A46U G61A A84U C85U | -4.32
G63U C115A | -1.22
A41U U78G C82U A91G A121C | -1.41
